Data from patent US7258861B2, “TNF-derived peptides for use in treating oedema” (Innogenetics N.V., priority 2001, dated 2007).
Positions of bridges follow the written chain, without caps; N, C: chain ends. No end group written: not given here. *: point of attachment. Biotin = O=C1N[C@H]2[C@H](CS[C@H]2CCCCC(=O)*)N1

B1: mutTNF: E.coli-derived recombinant (T104A-E106A-E109A) triple TNF mutant (protein, UniProt P06804 1-235, looked up, variant T104A E106A E109A)
chain: MSTESMIRDVELAEEALPQKMGGFQNSRRCLCLSLFSFLLVAGATTLFCLLNFGVIGPQRDEKFPNGLPLISSMAQTLTLRSSSQNSSDKPVAHVVANHQVEEQLEWLSQRANALLANGMDLKDNQLVVPADGLYLVYSQVLFKGQGCPDYVLLTHTVSRFAISYQEKVNLLSAVKSPCPKDAPAGAALKPWYEPIYLGGVFQLEKGDQLSAEVNLPKYLDFAESGQVYFGVIAL

Experiments:
[1] = Chloride efflux from SPQ-containing liposomes
Procedure: Preparation of liposomes. Large unilamellar liposomes were prepared by reverse phase evaporation as previously described (Vecsey-Semjen et al., 1996). Liposomes were prepared of either 100% egg phosphatidylglycerol (EPG) or a mixture of EPC and EPG (1:1 W/W) in a buffer containing 100 mM KCl, 20 mM N-[2-Hydroxyethyl]piperazine-N′-[2-ethane-sulfonic acid] (HEPES), pH 7.4 and 1.5 mg/ml of 6-methoxy-N-(3-sulfopropyl)quinolinium (SPQ).
Choride efflux measurements. All fluorescence experiments were carried out using a PTI spectrofluorometer equipped with a thermostated cell holder (37° C.). The dye was excited at 350 nm and emission was recorded at 422 nm, both excitation and emission band widths were set to 5 nm. Liposomes were diluted to a final concentration of 50 μg/ml in a solution containing 100 mM KNO3 and 20 mM MES pH 6.1 or 20 mM HEPES, pH 7.4. Wild type and mutant TNF were added to a final concentration of 3 μg/ml.

[2] = test system: resident peritoneal macrophages from mice deficient in both TNF receptor-1 and -2; experiment: Whole-cell patch clamp in resident peritoneal macrophages of TNFR1/2-deficient mice; type: cell-based, mouse; conditions: cells lacking TNF receptors
From the text: (§1) Animals, cells and reagents. Male CBA/J or C57BL/6 mice, as well as male TNFR ½^0/0 C57BL/6 mice deficient in TNF receptors (Bruce et al., 1996) provided by H. Bluethmann, F. Hoffmann-La Roche, Basel, Switzerland, were used at the age of 8–10 weeks. Their care was in accordance with institutional guidelines. Lung microvascular endothelial cells were isolated from CBA/J mice and characterized as described (Jackson et al., 1990) using magnetic beads (Dynabeads M-450, Dynal, Oslo, Norway), covalently bound to a purified rat-anti-mouse PECAM-1 monoclonal antibody (donated by B. Imhof, University of Geneva). Microvascular lung endothelial cells were resuspended in DMEM containing 2 mM L-glutamine, 100 U/ml penicillin, […], 20% FCS, 40 U/ml heparin and […] endothelial cell growth supplement (Brunschwig Chemie, Basel, Switzerland). For patch clamp experiments, cells were plated onto 35×10 mm easy grip Petri dishes (Beckton Dickinson, Plymouth, UK), pre-coated with 0.2% gelatin (Sigma, Buchs, Switzerland). Resident peritoneal macrophages, isolated in ice cold RPMI containing antibiotics and 10 U/ml Heparin, were left to adhere onto 35×10 mm easy grip Petri dishes for 4 h, after which the non-adherent cells were removed. […]
(§2) Electrophysiology. […] Currents were recorded with an Axopatch-200A amplifier (Axon Instrument Inc, Foster City, Calif., USA), low pass-filtered at 1 kHz. […]

[3] = test system: resident peritoneal macrophages; experiment: Whole-cell patch clamp in resident peritoneal macrophages; type: cell-based, mouse; conditions: 30 min preincubation, acidic pH
From the text: as §1, §2

isolated rat lungs = experiment: Isolated lung perfusion experiments (blood perfused, flooded with NaCl); conditions: after injection of 2 ml NaCl solution; 1 mg/lung
Procedure: Lungs of female Whistar rats weighing about 300 g were isolated as described in DeCampos et al. (1993). The lungs were injected intratracheally with either 500 μl of sterile […], wild type murine TNF (1 μg/lung) or mTNF tip peptide (Ltip (SEQ ID NO:6), see above; 1 mg/lung). Subsequently, the lungs were perfused with blood isolated from the same rat. Thirty minutes later, the lungs were injected intratracheally with 2 ml of sterile […] solution which leads to a weight increase of about 2 g (FIG. 5). The weight evolution was then followed continuously for 150 min (FIG. 5).

[4] = test system: lung microvascular endothelial cells; experiment: Whole-cell patch clamp, membrane conductance in lung microvascular endothelial cells; type: cell-based, mouse
From the text: Animals, cells and reagents. Male CBA/J or C57BL/6 mice, as well as male TNFR ½^0/0 C57BL/6 mice deficient in TNF receptors (Bruce et al., 1996) provided by H. Bluethmann, F. Hoffmann-La Roche, Basel, Switzerland, were used at the age of 8–10 weeks. Their care was in accordance with institutional guidelines. Lung microvascular endothelial cells were isolated from CBA/J mice and characterized as described (Jackson et al., 1990) using magnetic beads (Dynabeads M-450, Dynal, Oslo, Norway), covalently bound to a purified rat-anti-mouse PECAM-1 monoclonal antibody (donated by B. Imhof, University of Geneva). Microvascular lung endothelial cells were resuspended in DMEM containing 2 mM L-glutamine, 100 U/ml penicillin, […], 20% FCS, 40 U/ml heparin and […] endothelial cell growth supplement (Brunschwig Chemie, Basel, Switzerland). For patch clamp experiments, cells were plated onto 35×10 mm easy grip Petri dishes (Beckton Dickinson, Plymouth, UK), pre-coated with 0.2% gelatin (Sigma, Buchs, Switzerland). Resident peritoneal macrophages, isolated in ice cold RPMI containing antibiotics and 10 U/ml Heparin, were left to adhere onto 35×10 mm easy grip Petri dishes for 4 h, after which the non-adherent cells were removed. Cells were grown in RPMI 1640 containing 2 mM L-glutamine, 100 U/ml penicillin, 10 μpg/ml streptomycin and 10% fetal bovine serum (all from Gibco). For patch clamp, the macrophages ware used 24 h after isolation.
Electrophysiology. Cells were pretreated for 30 min with TNF, mutTNF and tip peptides at 37° C. in a buffer consisting of 145 mM NaCl, 3 mM KCl, 2mM CaCl2, 2mM MgCl2, 10 mM D-glucose, and 10mM Hepes, and pH-adjusted with NaOH to required value. Cells were then washed with the same buffer pH-adjusted at 7.3, and experiments were performed using the tight-seal, whole-cell recording technique. Currents were recorded with an Axopatch-200A amplifier (Axon Instrument Inc, Foster City, Calif., USA), low pass-filtered at 1 kHz. Digitalization and off-line analysis was performed using the WCP program (J. Dempster, Strathclyde Electrophysiology Software, Glasgow, UK). Patch pipettes were pulled from borosilicate glass and fire polished to have an open resistance of 3–5 MW with an internal solution containing […], 2 mM MgCl2, 10mM EGTA, 20 mM TEA-Cl, 10 mM D-glucose 10 mM Hepes, pH-adjusted to 7.3 with CsOH. Series resistances were kept under 10 MW. Capacitance and series resistance compensation were applied and set to 70%. All experiments were done at room temperature. Results are given as mean ±SEM, unless otherwise indicated. Analysis of variance was performed on currents and membrane conductance values, with post-hoc Dunn-Bonferroni test for significance of differences observed between two groups. A P value of 0.05 was considered significant.

trypanosome = conditions: compared to wild type TNF; cited from earlier work
[5] = Quenching of tryptophan fluorescence by brominated lipids; conditions: acidic pH
From the text: In order to investigate whether chloride efflux was due to membrane binding or membrane insertion of TNF, we have analyzed whether brominated lipids were able to quench the intrinsic fluorescence of TNF and mutTNF upon membrane interaction. Brominated lipids have been useful in determining the topology of membrane proteins (Bolon et al., 1990) (Markello et al., 1985) as well as studying the membrane interaction of pore-forming toxins (Gonzalez-Manas et al., 1992) (Van der Goot et al., 1991) (Vecsey-Semjen et al., 1997). TNF contains two tryptophan residues, one at the top of the receptor binding domain and one at the top of the so called tip domain. If the tip of the TNF trimer were to insert into the lipid bilayer, the fluorescence of Trp-113 should be quenched upon insertion into liposomes composed of dioleoylphosphatidylglycerol that had bromines attached at positions 9 and 10 of the acyl chains. We have indeed previously observed that tryptophans located at the boundary between the lipid head groups and the acyl chains were succeptible to bromide quenching.

[6] = test system: murine model of peritonitis; conditions: cited from earlier work
[7] = Tryptophan fluorescence (acidic unfolding); type: physicochemical
Procedure: Tryptophan fluorescence. Fluorescence measurements were made with a PTI spectrofluorimeter. The excitation wavelength was 295 nm and slit widths were 5 nm and 2.5 nm for excitation and emission respectively. For each recorded spectrum, the Raman scatter contribution was removed by subtraction of a buffer blank. All buffers contained 150 mM NaCl, and 20 mM of N-[2-morpholino] ethane-sulfonic acid (MES) buffer at the desired pH. The samples were allowed to incubate for 1 h 30 at the desired pH before measuring the emission spectrum. The wild type and mutant TNF concentrations were 6 μg/ml.

[8] = compared to wild-type mTNF in vivo; cited from earlier work
[9] = 30 min preincubation at acidic pH (pH 6), TNF, mutTNF 100 ng/ml, peptides 100 μg/ml

Row | Molecule | change in SPQ fluorescence / interaction with membranes ([1]; peptide concentrations up to 300 μg/ml, neutral, acidic or 1:1 lipids) | whole cell current [2] | whole cell current [3] | start of weight loss (isolated rat lungs) | induced increase in conductance in presence of amiloride ([4]; 100 μM amiloride added during pretreatment at pH 6.0) | whole cell current / membrane conductance [4, 9] | whole cell current / membrane conductance ([4]; preincubation at pH 7.3 (neutral pH)) | trypanolytic and lectin-like affinity to oligosaccharides (trypanosome) | fluorescence quenching by brominated lipids [5] | peritonitis-protective effect [6] | chloride efflux (SPQ fluorescence) ([1]; 100% EPG liposomes, pH 6.1, 3 μg/ml) | interaction with membranes ([1]; neutral pH) | acidic unfolding ([7]; acidification of the medium) | maximum emission of tryptophan fluorescence ([7]; pH 4.6) [nm] | maximum emission of tryptophan fluorescence ([7]; pH 6) [nm] | systemic toxicity [8]
1 | GG-CGPKDTPEGAELKPWYC (Biotin-GGCGPKDTPEGAELKPWYC; disulfide 3-19; listed as Mus musculus) [LTip] | unable to interact with membranes | also active | increased outward | started immediately | blocked | increased outward, and inward currents | persisted at neutral pH, although less pronounced |  |  |  |  |  |  |  |  | 
2 | B1 |  |  |  |  |  | completely lacked the conductance activating effect |  | lacks the trypanolytic and lectin-like affinity to oligosaccharides | unable to see any fluorescence quenching | retains its peritonitis-protective effect | even more pronounced than that of wild type TNF | did not interact with membranes | able to undergo acidic unfolding | 339 | 318 | significantly reduced systemic toxicity
